The record followed here is the nanobody polyreactivity screen of Harvey et al. (2022).

A short description of this data set: yeast display, Sf9 membrane polyspecificity reagent, FACS + sequencing; frameworks hold sequencing errors. In outline:
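A nanobody's polyreactivity label depends on the gate it was sorted from. Yeast display cells were stained with 10% biotinylated, detergent-solubilized Sf9 membrane reagent for 1 hour at 4 °C, enriched on streptavidin microbeads and sorted by FACS. The low and high (top ~1%) gates were set on anti-HA fluorescence for expression and streptavidin fluorescence for reagent binding.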
As for “QVQLVESGGGLVQAGGRLRLSCAASGSTFDVYAMGWYRQAPGKERELVAVINTSGTRTYYADSVKGRFTISRDNAKNTVYLQRNSLKPEDTAVYYCNAGGHLEMNYWGQGTQVTVSS”, the “polyreactivity (PSR sort gate)” value is listed as “low polyreactivity”.
As to “QVQLVESGGGLVQAGGRLRLSCAASGSTFEVNAMGWYRQAPGKERELVAAISSSAGDTYYADSVKGRFTISRDNAKYTVYLQMNSLKPEDTAVYYCAADYGYSPFDYWGQGTQVTVSS”, the “polyreactivity (PSR sort gate)” value is listed as “low polyreactivity”.
The entry for “QVQLVESGGGLVQAGGRLRLSCAASGSTFIDYAMGWYIHAPGKERELVAAITWDGSSTYYADSVKGRFTISRDNAKNTVYLQMNSLKPEDTAVYYCATDYAGQYPVDGQPIHDYWGQGTQVTVSS” is “low polyreactivity”; for “QVQLVESGGGLVQAGGRLRLSCAASGSTFKSYVMGGSRQAPGKERELVAAISSGDSTYYADSVKGRFTISRDNAKNTVNLQMNSLKPEDTAVYYCAADPGYTVEPWEDDYWGQGTQVTVSS” it is “low polyreactivity”.
For the sequence “QVQLVESGGGLVQAGGRLRLSCAASGSTFPTNVMGWYRQAPGKERELVAAITKRGSITYYADSVKGRFTISRDNAKNTVYLQMNSLKPEDTAVYYCAARKVAVRGYGYWGQGTQVTVSS”, the “polyreactivity (PSR sort gate)” value is given as “high polyreactivity”.
“QVQLVESGGGLVQAGGRLRLSCAASGSTFRPYAMGWYRQAPGKERELVAAITFNGDTYADSVKGRFTISRDNAKNTVYLQMNSLKPEDTAVYYCAARKWYYYLRPWTSVGGYYWGQGTQVTVSS”: the “polyreactivity (PSR sort gate)” value was “high polyreactivity”.
With “QVQLVESGGGLVQAGGRLRLSCAASGSTFSRYAMGWYRQAPGKERELVAAISWSGGITYYADSVKGRFTISRDNAKNTVYLQMNSLKPEDTAVYYCAARSRSWSGERGYWGQGTQVTVSS”, the “polyreactivity (PSR sort gate)” value is given as “high polyreactivity”.
The entry for “QVQLVESGGGLVQAGGRLRLSCAASGSTFVGNAMGWYRQAPGKERELVAAIRKSGGRTYYADSVKGRFTISRDNAKNTVYLQMNSLKPEDTEVYYCAVDRLLYYLIYYRAGVEGGYWGQGTQVTVSS” is “high polyreactivity”.
Consider “QVQLVESGGGLVQAGGRLRLSCAASGSTFVYNAMGWYRPAPGKERELVAAISRSGGRTYYADSVKGRFTISRDNAKNSVYLQMNSLKPEDTAVYYCAVLLRGIEYDYWGQGTQVTVSS”, for which the “polyreactivity (PSR sort gate)” value was “high polyreactivity”.
On to “QVQLVESGGGLVQAGGRLRLSCAASGSTFYLNAMGWYRPAHGKERELVAAITRIGGSTYYADSVKGRFTISRDNAKNTVYLQMYSLTPEDTAVYYCAKDYGQARHDRYGYWGAGTQVTVSS”, for which the “polyreactivity (PSR sort gate)” value is recorded as “low polyreactivity”.
The entry for “QVQLVESGGGLVQAGGRLRLSCAASGSTFYLNAMGWYRQAPGQERELVAAINGGGSTNYADSVKGRFTISRDNAKNTVYLQRNSLKPEDTAVYYCAAETSYANRDRFDYWGQGTQVTVSS” is “low polyreactivity”; for “QVQLVESGGGLVQAGGRLRLSCAASGSTLDTYAMGWYRQAPGKERELVAGITWSGGSTYYADSVKGRFTISRDNAKNTVYLQMNSLKPEDTAVYYCAAYSPYGPRYDYWGQGTQVTVSS” it is “low polyreactivity”; for “QVQLVESGGGLVQAGGRLRLSCAASGSTLGYYTMGWYRQAPGKERELVAANTRSGGSTYYADSVKGRFTISRDNAKNTVYLQMNSLKPEDTAVYYCAAAWTRFRIYDYWGQVTQVTVSS” it is “high polyreactivity”.
For the sequence “QVQLVESGGGLVQAGGRLRLSCAASGSTLSANAMGWYSPAPGKERELVAAISRRSGGTYYADSVKGRFTISRDNAKNSVYLQMNSLKPEDTAVYYCIKVLKDPHTWGWVDYDYCGQGTQVTVSS”, the “polyreactivity (PSR sort gate)” value was “high polyreactivity”.
As to “QVQLVESGGGLVQAGGRLRLSCAASGSTLYPNAMGWSRQAPGKDRELVAAISSGSSTYADSVKGRFTISRDNAKNTVYLQMNSLKPADTAVYYCNADAPIHYDYWGQGTQVTVSS”, the “polyreactivity (PSR sort gate)” value is given as “low polyreactivity”.
For “QVQLVESGGGLVQAGGRLRLSCAASGYIFKSYVMGWYRQAPGKERELVAAITWSGGSTYYADSVKGRFTISRDNAKNTVYLQMNSLKPEDTAVYYCAAYPRRYRTTYDYWGQGTQVTVSS”, the “polyreactivity (PSR sort gate)” value is “high polyreactivity”.
On to “QVQLVESGGGLVQAGGRLRLSCAASGYIFYYNAIGWYRQAPGKERELVAAITSDDSTYYADSVKGRFTISRDNAKNTVYLQMNSLKPEDTAVYYCNAVRYGHWYDYWGQGTQVTVSS”, for which the “polyreactivity (PSR sort gate)” value was “low polyreactivity”.
The entry for “QVQLVESGGGLVQAGGRLRLSCAASGYTFEGYAMGWDRQAPGKERELVAAISRSGGRRYYADSVKGRFTISRDNAKNTVYLQMNSLKPEDTAVYYWAAGGYYQRTRGYWGQGTQVTVSS” is “high polyreactivity”.
With “QVQLVESGGGLVQAGGRLRLSCADSGFTFDANAMGWYRQAPGKEPELVAAISLSDGSTYYADSVKGRFTISRDNAKNTVYLQMNSLKPEDTAVYYCNAERFGSGLAWLLFDYWGQGTQVTVSS”, the “polyreactivity (PSR sort gate)” value is listed as “low polyreactivity”.
“QVQLVESGGGLVQAGGRLRLSCADSGRTFPLYVMGWYRQAPGKERELVAAISARGGSTYYADSVKGRFTISRDNAKNTVYLQMNSLKPEDTAVYYCATLVTNGRYDSWGQGTQVTVSS”: the “polyreactivity (PSR sort gate)” value is on record as “high polyreactivity”.
Consider “QVQLVESGGGLVQAGGRLRLSCAPSGLIFQHNSMGWYRKATGKERELVASITWDGGSTYYADSVKGRFTISRDNAKNTVYLQMNSLKPEDTAVYYCAARFDSFWVEYDYWGQGTQVTVSS”, for which the “polyreactivity (PSR sort gate)” value is “low polyreactivity”.
With “QVQLVESGGGLVQAGGRLRLSCDASGITFISNTMGWSRQAPGKERELVAAISWTGGSTYYADSVKGRFTISRDNAKNTVYLQMNSQKPEDTAVYYCNAVRYYVYSTQYDYWGEGTQVTVSS”, the “polyreactivity (PSR sort gate)” value is on record as “high polyreactivity”.
Consider “QVQLVESGGGLVQAGGRLRLSCDASGRIFTYNAMGWYRQAPGKERELVGAITFSGGGTYYADSVKGRFTISRDNAKNTVYLVMTSLKPEDTAVYYCNQVSFGYSTYGYWGQGTQVTVSS”, for which the “polyreactivity (PSR sort gate)” value is given as “low polyreactivity”.
“QVQLVESGGGLVQAGGRLRLSCDASGSTFVKYAMGWYRQAPGKERELVARISSSGGSTYYADSVKGRFTISRDNAKNTVFLQMNSLKPEDTAVYYCAAPSLIAKYDYWGQGTHVTVSS”: the “polyreactivity (PSR sort gate)” value is “high polyreactivity”.
The entry for “QVQLVESGGGLVQAGGRLRLSCVASGSIFSGNAMGWYRQARGKERELVAAITRSGTSTYYADSVKGRFTISRDNAKNTVYLQMNSVKPEDTAVYYCATQYGRQRRAMYYWGQGTQVTVTS” is “high polyreactivity”; for “QVQLVESGGGLVQAGGRLRLSFAASGLTFWWYAMGWYRQAPGKERELVAAIDSADITNYADSVKGRFTISRDNAKNTVYLQMNSLKPEDTAVYYCAAGRDYYVVNYVLFLFDYWGQGTQVTVSS” it is “high polyreactivity”; for “QVQLVESGGGLVQAGGRLRLSSAASGFTLVLNAMGWYIPAPGKERELVAAIRRSAGSTYYADSVKGRFTISRDNAKNTVYLQMNRLKPEDTAVYYCAAGFLWAKYAYGHWGQATQVTVSS” it is “low polyreactivity”.
With “QVQLVESGGGLVQAGGRLRLSSAASGSTFHGYAMGWYRQEPGKERELVAAITSGDSTNYADSVKGRFTISRDNAKKTVYLQMNSLKPEDTAVYDCNAEGSSVLTGYWGYPPYWDTYVYWGQGTQVTVSA”, the “polyreactivity (PSR sort gate)” value is “low polyreactivity”.
In the case of “QVQLVESGGGLVQAGGRLRLSSDASGLTFPTNAMGRYRQAHGKETEFVAAITSRGGTTYYADSVKGRFTISRDNAKNTVYLQMNSLKPEDTAVYYCAALSVTIYQSYRYGYWGQGTQVTVSS”, the “polyreactivity (PSR sort gate)” value is reported as “low polyreactivity”.
Turning to “QVQLVESGGGLVQAGGRLRLTCAASGITFTGNAMGWYRQAPGKERELVAVITSGGSTYYADSVKGRFTISRDNAKNTVYLQMNSLKPEDTAVYYCAAPVYYYYSKAMDYWGQGTQVTVSS”, the “polyreactivity (PSR sort gate)” value is reported as “high polyreactivity”.
